# Measurements: patent publication US20070249808A1 (priority 2000, published 2007)
# B1: pCDL-HERV WΔ120 aa: N-terminal 120 amino acid fragment of HERV-W ENV (amino acids 1 to 120, including signal peptide), expressed from a bicistronic cassette (protein)
# chain: APPPCRCMTSSSPYQEFLWRMQRPGNIDAPSYRSLSKGTPTFTAHTHMPRNCYHSATLCMHANTHYWTGKMINPSCPGGLGVTVCWTYFTQTGMSDGGGV
# System: CD3+ Vβ+ T cells of peripheral blood lymphocytes (PBL)
# Assay: T-cell enrichment assay with HtTA 4 cells transfected with bicistronic constructs
# Assay type: cell-based, human
# Details: PBL from a healthy donor; 9 days of specific stimulation; FIG. 18
molecule,measurement,value
B1,expansion of Vβ17+ T-cells,no expansion
